According to publication PMC2377097, “Unc45b Forms a Cytosolic Complex with Hsp90 and Targets the Unfolded Myosin Motor Domain” (PLoS ONE, 2008):

Biological target: the molecule itself
Assay: SEC; Superose 6 HR 10/300, 50 mM Tris-HCl pH 7.4, 150 mM NaCl, 1 mM DTT; purified proteins run alone or as a complex formed from equimolar amounts

B1: rabbit reticulocyte lysate Hsp90 (natural protein)
chain: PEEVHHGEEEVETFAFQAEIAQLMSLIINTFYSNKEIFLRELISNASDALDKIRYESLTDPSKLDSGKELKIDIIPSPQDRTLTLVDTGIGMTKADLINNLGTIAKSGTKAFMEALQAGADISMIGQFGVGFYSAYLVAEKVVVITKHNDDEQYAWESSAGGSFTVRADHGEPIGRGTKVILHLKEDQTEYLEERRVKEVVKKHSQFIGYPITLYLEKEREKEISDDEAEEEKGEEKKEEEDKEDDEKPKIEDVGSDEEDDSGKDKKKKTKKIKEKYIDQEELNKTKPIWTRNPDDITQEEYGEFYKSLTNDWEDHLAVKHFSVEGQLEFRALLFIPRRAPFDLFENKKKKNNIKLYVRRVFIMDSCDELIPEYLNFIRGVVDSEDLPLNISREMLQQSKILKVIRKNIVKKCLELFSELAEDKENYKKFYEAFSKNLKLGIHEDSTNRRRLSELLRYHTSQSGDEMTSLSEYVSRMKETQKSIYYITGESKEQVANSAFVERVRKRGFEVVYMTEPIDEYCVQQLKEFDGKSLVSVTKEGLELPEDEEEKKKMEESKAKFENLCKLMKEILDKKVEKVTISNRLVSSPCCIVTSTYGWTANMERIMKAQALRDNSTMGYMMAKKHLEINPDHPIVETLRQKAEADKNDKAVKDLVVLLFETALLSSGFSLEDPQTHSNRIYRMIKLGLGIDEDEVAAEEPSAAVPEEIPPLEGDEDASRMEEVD
stoichiometry N: 2
